The text below walks through data of paper PMC12295887.

The target in assay [1] is actin purified from rabbit skeletal muscle (m. longissimus dorsi) (rabbit) (UniProt P68135).
For assay [2] the target is unchanged. The source holds these as a separate data set.
For assay [3] the target is unchanged. This is another data set of the same source.

Turning to “PEVKII, the middle one-third segment of the human skeletal muscle titin PEVK domain (domain or fragment)”, the pyrene-actin fluorescence excitation and emission intensity after 800 s of polymerization, 4 µM actin (10% pyrene-labeled) with 5.5 nM PEVKII, against actin alone in assay [1] stood at 16%. The initial rate of actin polymerization (pyrene assay, 4 µM actin), PEVKII 3.25-32.5 nM, against actin alone in assay [2] was more than 30 fold. Moreover, in assay [3], the peak pyrene fluorescence intensity (total amount of F-actin), 4 µM actin, PEVKII 3.25-32.5 nM, against actin alone was determined as 22% and the time to reach the peak pyrene fluorescence intensity, 4 µM actin, PEVKII 3.25-32.5 nM, against actin alone is more than 3 times faster.
